Changes are numbered by the printed parent chain. Like-named read-outs stand apart in the source and are kept apart here.
Key:
Test in all cases: BLI
PfAlba6 = molecular target: T1, PfAlba6 (Plasmodium falciparum 3D7, UniProt Q8I617)
T1 sequence: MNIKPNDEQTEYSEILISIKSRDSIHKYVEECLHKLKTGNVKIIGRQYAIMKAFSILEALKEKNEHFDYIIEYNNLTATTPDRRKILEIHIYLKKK

PfAlba6 Y28A [1] = molecular target: T2, PfAlba6 Y28A (Plasmodium falciparum 3D7, UniProt Q8I617 1-96, Y28A)
T2 sequence: T1 sequence with Y28A

PfAlba6 Y28A [2] = molecular target: T2, PfAlba6 Y28A; remark: listed apart in the source

B1: 28 bp dsDNA (C28) (dsDNA)
DNA 1: TGGCGAAAGGGGGTTGTGCTGCAAGGCG
DNA 2: CGCCTTGCAGCACAACCCCCTTTCGCCA
In the case of B1, the Kd (PfAlba6) is reported as 10 ± 0.37 nM, the Kd (PfAlba6 Y28A [1]) is reported as 10 ± 0.9 nM and the Kd (PfAlba6 Y28A [2]) is reported as 12.1 ± 0.83 nM.
